Positions count from the first letter of the chain named. Names and notes keep the numbering of the source.
B1: PR003549 (bispecific antibody, human IgG1, kappa, L234A L235A)
light: DIQMTQSPSTLSASVGDRVTVTCRASQSIYIWLAWYQQKPGKAPNLLIYKASSLETGVPSRFSGSGSGTEFTLTISSLQPDDFATYYCQQYYGSSRTFGQGTKVEIKRTVAAPSVFIFPPSDEQLKSGTASVVCLLNNFYPREAKVQWKVDNALQSGNSQESVTEQDSKDSTYSLSSTLTLSKADYEKHKVYACEVTHQGLSSPVTKSFNRGEC
heavy: EVQLVESGGGLVQPGGSLRLSCAASGFTFSSYWMSWVRQAPGKGLEWVANIKQEGSEKYYVDSVKGRFTISRDNAKNSLYLQMNSLRAEDTAVYYCARDRAVAGAFDIWGQGTMVTVSSASTKGPSVFPLAPSSKSTSGGTAALGCLVKDYFPEPVTVSWNSGALTSGVHTFPAVLQSSGLYSLSSVVTVPSSSLGTQTYICNVNHKPSNTKVDKKVEPKSCDKTHTCPPCPAPEAAGGPSVFLFPPKPKDTLMISRTPEVTCVVVDVSHEDPEVKFNWYVDGVEVHNAKTKPREEQYNSTYRVVSVLTVLHQDWLNGKEYKCKVSNKALGAPIEKTISKAKGQPREPQVYTLPPSREEMTKNQVSLTCLVKGFYPSDIAVEWESNGQPENNYKTTPPVLDSDGSFFLYSKLTVDKSRWQQGNVFSCSVMHEALHNHYTQKSLSLSPGEPKSSDKTHTPPPPPRTEVQLLESGGGLVQLGGSLRLSCAASGFTFSRYAMTWVRQAPEKGLEWVSSISGSGDDTYYGDSVKGRFTISRDNSQNTVYLQMNSLRAEDTAVYFCAKEKAGTTGDYYYNVDVWGQGTTVTVSS
notes: PD-L1x4-1BB IgG-VH: PR000265 + VH of PR001758 at heavy-chain C-terminus
B2: PR007132 (bispecific antibody, human IgG1, kappa)
light: B1 light
heavy: EVQLVESGGGLVQPGGSLRLSCAASGFTFSSYWMSWVRQAPGKGLEWVANIKQEGSEKYYVDSVKGRFTISRDNAKNSLYLQMNSLRAEDTAVYYCARDRAVAGAFDIWGQGTMVTVSSASTKGPSVFPLAPSSKSTSGGTAALGCLVKDYFPEPVTVSWNSGALTSGVHTFPAVLQSSGLYSLSSVVTVPSSSLGTQTYICNVNHKPSNTKVDKKVEPKSCDKTHTCPPCPAPEAAGAPSVFLFPPKPKDTLMISRTPEVTCVVVDVSHEDPEVKFNWYVDGVEVHNAKTKPREEQYNSTYRVVSVLTVLHQDWLNGKEYKCKVSNKALPAPIEKTISKAKGQPREPQVYTLPPSREEMTKNQVSLTCLVKGFYPSDIAVEWESNGQPENNYKTTPPVLDSDGSFFLYSKLTVDKSRWQQGNVFSCSVMHEALHNHYTQKSLSLSPGGGSGGSEVQLVESGGGLVKPGGSLRLSCAASGFTFSDYYMSWIRQAPGKGLEWVSYISSSGSTIYYADSVKGRFTISRDNAKNSLYLQMNSLRAEDTAVYYCARVKPVAGTWDWFDPWGQGTPVTVSS
notes: PD-L1x4-1BB IgG-VH: PR000265 + VH of PR007286 at heavy-chain C-terminus
B3: PR004268 (bispecific antibody, human IgG1, kappa, L234A L235A)
light: B1 light
heavy: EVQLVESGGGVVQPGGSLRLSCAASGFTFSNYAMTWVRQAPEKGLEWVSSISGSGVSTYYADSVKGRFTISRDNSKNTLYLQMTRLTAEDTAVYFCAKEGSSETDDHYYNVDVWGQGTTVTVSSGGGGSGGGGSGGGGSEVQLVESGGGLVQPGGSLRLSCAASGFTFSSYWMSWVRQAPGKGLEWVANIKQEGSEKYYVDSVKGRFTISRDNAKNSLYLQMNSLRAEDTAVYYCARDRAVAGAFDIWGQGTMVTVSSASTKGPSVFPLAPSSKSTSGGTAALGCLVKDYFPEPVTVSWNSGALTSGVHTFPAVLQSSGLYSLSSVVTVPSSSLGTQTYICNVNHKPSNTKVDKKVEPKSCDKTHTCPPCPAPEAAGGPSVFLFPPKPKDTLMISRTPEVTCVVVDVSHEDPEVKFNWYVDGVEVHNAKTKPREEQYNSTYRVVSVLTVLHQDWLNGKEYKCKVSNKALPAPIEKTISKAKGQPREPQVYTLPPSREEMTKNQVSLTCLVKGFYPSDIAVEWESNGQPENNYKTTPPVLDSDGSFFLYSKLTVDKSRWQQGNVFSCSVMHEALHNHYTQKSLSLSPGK
notes: PD-L1x4-1BB IgG-VH: VH of PR001760 at heavy-chain N-terminus of PR000265, linker GS_15
B4: PR007136 (bispecific antibody, human IgG1, kappa)
light: B1 light
heavy: EVQLVESGGGLVQPGGSLRLSCAASGFTFSSYWMSWVRQAPGKGLEWVANIKQEGSEKYYVDSVKGRFTISRDNAKNSLYLQMNSLRAEDTAVYYCARDRAVAGAFDIWGQGTMVTVSSASTKGPSVFPLAPSSKSTSGGTAALGCLVKDYFPEPVTVSWNSGALTSGVHTFPAVLQSSGLYSLSSVVTVPSSSLGTQTYICNVNHKPSNTKVDKKVEPKSCDKTHTCPPCPAPEAAGAPSVFLFPPKPKDTLMISRTPEVTCVVVDVSHEDPEVKFNWYVDGVEVHNAKTKPREEQYNSTYRVVSVLTVLHQDWLNGKEYKCKVSNKALPAPIEKTISKAKGQPREPQVYTLPPSREEMTKNQVSLTCLVKGFYPSDIAVEWESNGQPENNYKTTPPVLDSDGSFFLYSKLTVDKSRWQQGNVFSCSVMHEALHNHYTQKSLSLSPGGGSGGSEVQLVESGGGLVKPGGSLRLSCAASGFTFSDYYMSWFRQAPGKGLEWVSYISSSGSTQDYADSVKGRFTISRDNAKNSLYLQMNSLRAEDTAVYYCAREREPVAGTLDFDNWGQGTPVTVSS
notes: PD-L1x4-1BB IgG-VH: PR000265 + VH of PR007289 at heavy-chain C-terminus
B5: PR007130 (bispecific antibody, human IgG1, kappa)
light: B1 light
heavy: EVQLVESGGGLVQPGGSLRLSCAASGFTFSSYWMSWVRQAPGKGLEWVANIKQEGSEKYYVDSVKGRFTISRDNAKNSLYLQMNSLRAEDTAVYYCARDRAVAGAFDIWGQGTMVTVSSASTKGPSVFPLAPSSKSTSGGTAALGCLVKDYFPEPVTVSWNSGALTSGVHTFPAVLQSSGLYSLSSVVTVPSSSLGTQTYICNVNHKPSNTKVDKKVEPKSCDKTHTCPPCPAPEAAGAPSVFLFPPKPKDTLMISRTPEVTCVVVDVSHEDPEVKFNWYVDGVEVHNAKTKPREEQYNSTYRVVSVLTVLHQDWLNGKEYKCKVSNKALPAPIEKTISKAKGQPREPQVYTLPPSREEMTKNQVSLTCLVKGFYPSDIAVEWESNGQPENNYKTTPPVLDSDGSFFLYSKLTVDKSRWQQGNVFSCSVMHEALHNHYTQKSLSLSPGGGSGGSEVQLLESGGGLVQPGGSLRLSCAASGFTFSNYAMSWFRQPPETGLKWVSSIDASGGDTYYADSVKGRFTISRDNSKNTLYLQMNSLRAEDTAVYYCAKEGSHGTDDSHYDVDVWGQGTTVTVSS
notes: PD-L1x4-1BB IgG-VH: PR000265 + VH of PR004469 at heavy-chain C-terminus
B6: PR007143 (bispecific antibody, human IgG1, kappa)
light: B1 light
heavy: B4 heavy with A477V, S507G, S510T, Q512I, P556A
notes: PD-L1x4-1BB IgG-VH: PR000265 + VH of PR007296 at heavy-chain C-terminus
B7: PR007146 (bispecific antibody, human IgG1, kappa)
light: B1 light
heavy: B4 heavy with F491V, Q512I, Y534F, Q536E, P556E, P571L
notes: PD-L1x4-1BB IgG-VH: PR000265 + VH of PR007298 at heavy-chain C-terminus
B8: PR007137 (bispecific antibody, human IgG1, kappa)
light: B1 light
heavy: B4 heavy with L465V, K467Q, G470R, S510T, Q512I, P556E, N565Y
notes: PD-L1x4-1BB IgG-VH: PR000265 + VH of PR007290 at heavy-chain C-terminus
B9: PR007133 (bispecific antibody, human IgG1, kappa)
light: B1 light
heavy: B4 heavy with V459E, T511I, Q512T, S517A, T523N, P556A, P571L
notes: PD-L1x4-1BB IgG-VH: PR000265 + VH of PR007287 at heavy-chain C-terminus
B10: PR007139 (bispecific antibody, human IgG1, kappa)
light: B1 light
heavy: B4 heavy with F491I, Q512I, P556E, F563Y, P571L
notes: PD-L1x4-1BB IgG-VH: PR000265 + VH of PR007292 at heavy-chain C-terminus
B11: PR003551 (bispecific antibody, human IgG1, kappa, L234A L235A)
light: B1 light
heavy: EVQLVESGGGLVQPGGSLRLSCAASGFTFSSYWMSWVRQAPGKGLEWVANIKQEGSEKYYVDSVKGRFTISRDNAKNSLYLQMNSLRAEDTAVYYCARDRAVAGAFDIWGQGTMVTVSSASTKGPSVFPLAPSSKSTSGGTAALGCLVKDYFPEPVTVSWNSGALTSGVHTFPAVLQSSGLYSLSSVVTVPSSSLGTQTYICNVNHKPSNTKVDKKVEPKSCDKTHTCPPCPAPEAAGGPSVFLFPPKPKDTLMISRTPEVTCVVVDVSHEDPEVKFNWYVDGVEVHNAKTKPREEQYNSTYRVVSVLTVLHQDWLNGKEYKCKVSNKALGAPIEKTISKAKGQPREPQVYTLPPSREEMTKNQVSLTCLVKGFYPSDIAVEWESNGQPENNYKTTPPVLDSDGSFFLYSKLTVDKSRWQQGNVFSCSVMHEALHNHYTQKSLSLSPGEPKSSDKTHTPPPPPRTEVQLLESGGGLVQPGGSLRLSCAASGFIFSNFAMTWVRQPPEKGLKWVSSINGSGFNTYYTDSVKGRFTISRDNSRNTLYLQMNRLTAEDTAVYFCAKEGSSETDDHYYNVDVWGQGTTVTVSS
notes: PD-L1x4-1BB IgG-VH: PR000265 + VH of PR001836 at heavy-chain C-terminus
B12: PR007135 (bispecific antibody, human IgG1, kappa)
light: B1 light
heavy: B4 heavy with S507G, T511I, Q512I, A551S, P556A, N565Y, P571L
notes: PD-L1x4-1BB IgG-VH: PR000265 + VH of PR007288 at heavy-chain C-terminus
B13: PR007141 (bispecific antibody, human IgG1, kappa)
light: B1 light
heavy: B4 heavy with A477V, S507G, S510T, Q512I, P571L
notes: PD-L1x4-1BB IgG-VH: PR000265 + VH of PR007294 at heavy-chain C-terminus
B14: PR004270 (bispecific antibody, human IgG1)
chain 1: EVQLVESGGGLVQPGGSLRLSCAASGFTFSSYWMSWVRQAPGKGLEWVANIKQEGSEKYYVDSVKGRFTISRDNAKNSLYLQMNSLRAEDTAVYYCARDRAVAGAFDIWGQGTMVTVSSASTKGPSVFPLAPSSKSTSGGTAALGCLVKDYFPEPVTVSWNSGALTSGVHTFPAVLQSSGLYSLSSVVTVPSSSLGTQTYICNVNHKPSNTKVDKKVEPKSC
chain 2: not shown
notes: PD-L1x4-1BB Fab-HCAb symmetric structure: Fab of PR000265, VH of PR001760, human IgG1 (L234A, L235A)

Target: T1, human PD-L1 on CHO-K1 cells (human, UniProt Q9NZQ7 19-290)
T1 construct: whole, on cells; also called CHO-K1/hPDL1; CHO-K1/hPD-L1
Test: FACS, CHO-K1/hPD-L1 cells

T1 sequence (Q9NZQ7 19-290): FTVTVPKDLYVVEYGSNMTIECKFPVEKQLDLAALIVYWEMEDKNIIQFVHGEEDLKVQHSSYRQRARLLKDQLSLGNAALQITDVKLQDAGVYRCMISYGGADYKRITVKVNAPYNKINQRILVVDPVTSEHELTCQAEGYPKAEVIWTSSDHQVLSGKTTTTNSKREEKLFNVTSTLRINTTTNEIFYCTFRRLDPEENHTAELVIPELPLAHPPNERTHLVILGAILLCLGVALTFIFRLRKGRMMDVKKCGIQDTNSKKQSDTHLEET

binding result | Binder
binds | B1
binds | B2
binds | B3
binds | B4
binds | B5
binds | B6
binds | B7
binds | B8
binds | B9
binds | B10
binds | B11
binds | B12
binds | B13
binds | B14

Target: T2, human 4-1BB on CHO-K1 cells (human, UniProt Q07011 24-255)
T2 construct: whole, on cells; also called CHO-K1/hu 4-1BB; CHO-K1/hu4-1BB
Test: FACS, CHO-K1/hu4-1BB cells
Protocol: The binding abilities of the antibody molecules to a CHO-K1 cell strain highly expressing human 4-1BB (CHO-K1/hu4-1BB, GenScript, M00538) and a CHO-K1 cell strain highly expressing cynomolgus monkey 4-1BB (CHO-K1/cyno4-1BB, GenScript, M00569) were determined by flow cytometry FACS. Specifically, the cells were digested and resuspended in a complete medium, and the cell density was adjusted to 2×10⁶ cells/mL. Then, the cells were seeded in a 96-well V-bottom plate (Corning, #3894) at 100 μL/well (2×10⁵ cells/well) and centrifuged at 4° C. for 5 min, and the supernatant was discarded. Then, the serially diluted antibody molecules were added to the 96-well plate at 100 μL/well, and the mixtures were well mixed. The antibody molecules might serially diluted 3-fold from the highest final concentration 200 nM to obtain a total of 12 concentrations. hIgG1 iso (CrownBio, #C0001) was used as an isotype control. The cells were incubated at 4° C. for 1 h away from light. Then, the cells in each well were rinsed twice with 100 μL of pre-cooled FACS buffer (PBS buffer containing 0.5% BSA) and centrifuged at 500 g at 4° C. for 5 min, and then the supernatant was discarded. […] Then, the cells in each well were then rinsed twice with 200 μL of pre-cooled FACS buffer and centrifuged at 500 g at 4° C. for 5 min, and then the supernatant was discarded. Finally, a pre-cooled FACS buffer was added at 200 μL/well to resuspend the cells. The fluorescence signal values were read using a BD FACS CANTOII flow cytometer.

T2 sequence (Q07011 24-255): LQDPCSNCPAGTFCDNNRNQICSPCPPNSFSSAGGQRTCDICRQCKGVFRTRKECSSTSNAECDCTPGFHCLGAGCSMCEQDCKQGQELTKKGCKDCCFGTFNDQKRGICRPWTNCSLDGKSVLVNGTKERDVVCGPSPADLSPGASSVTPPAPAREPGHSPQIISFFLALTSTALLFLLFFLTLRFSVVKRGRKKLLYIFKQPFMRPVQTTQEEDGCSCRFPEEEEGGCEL

binding result | Binder
binds | B1
binds | B2
binds | B4
binds | B5
binds | B6
binds | B7
binds | B8
binds | B9
binds | B10
binds | B11
binds | B12
binds | B13
